Data published in article PMC7341804.

Target: Arabinosyltransferase B (EmbB) from Mycobacterium smegmatis (Mycobacterium smegmatis) (UniProt Q50395)
Assay: native MS; EmbB in 0.2 M ammonium acetate pH 6.8 with 0.01% C12E8 detergent; Q-Exactive HF Orbitrap UHMR, HCD 150 V, capillary 300 °C

Arabinosyltransferase B (EmbB) from Mycobacterium smegmatis (from UniProt Q50395 1-1082) (enzyme)
stoichiometry N: 2
